± gives the uncertainty stated by the source.

Data on 38 sequences can be found in the supplement of paper PMC7877785.

The nature of the data set: self-splicing fitness, log relative to wild type (ln ratio); higher = more splicing; Tetrahymena group I intron in knt gene, E. coli kanamycin selection, DiMSum; sequences stand for … in CUCUCU…GGAGGGAAAAGUUAUCAGGCAUGCACCUGGUAGCUAGUCUUUAAACCAAUAGAUUGCAUCGGUUUAAAAGGCAAGACCGUCAAAUUGCGGGAAAGGGGUCAACAGCCGUUCAGUACCAAGUCUCAGGGGAAACUUUGAGAUGGCCUUGCAAAGGGUAUGGUAAUAAGCUGACGGACAUGGUCCUAACCACGCAGCCAAGUCCUAAGUCAACAGAUCUUCUGUUGAUAUGGAUGCAGUUCACAGACUAAAUGUCGGUCGGGGAAGAUGUAUUCUUCUCAUAAGAUAUAGUCGGACCUCUCCUUAAUGGGAGCUAGCGGAUGAAGUGAUGCAACACUGGAGCCGCUGGGAACUAAUUUGUAUGCGAAAGUAUAUUGAUUAGUUUUGGAGUACUCGUGGUCG
In short, it runs like this:
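Pooled colonies went to amplicon sequencing on an Illumina HiSeq 2500 after six replicate transformations. The plates were LB agar with 100 μg/mL carbenicillin, 50 μM IPTG and 0.2% rhamnose, with or without 25 μg/mL kanamycin, incubated overnight at 37°C or 30°C. The E. coli BL21(DE3) library had all eight P1ex-region intron nucleotides randomised, the intron placed in the knt kanamycin-resistance gene on pET-22b(+). DiMSum fitness is the error-weighted combination of replicate fold changes, kanamycin against none, normalised to wild type.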

AGGCAGCAAUAUUACGGUAC: the “self-splicing fitness (ln)” value (30 °C) was -3.68 ± 0.21 and the “self-splicing fitness (ln)” value (37 °C) was -2.65 ± 0.2.

AGGCAGCAAUAUUACGAAUG: the “self-splicing fitness (ln)” value was -1.83 ± 0.17 (30 °C) and -1.73 ± 0.2 (37 °C).

For the sequence AAAGAGCAAUAUUACGCUCG, the “self-splicing fitness (ln)” value reads like this: (30 °C) -2.17 ± 0.12; (37 °C) -0.963 ± 0.12.

Regarding CAGCAGCAAUAUUACGUCGG, the “self-splicing fitness (ln)” value (30 °C) is -0.346 ± 0.063 and the “self-splicing fitness (ln)” value (37 °C) is -0.0699 ± 0.09.

As to GAUAAGCAAUAUUACGAUCA, the “self-splicing fitness (ln)” value reads like this: (30 °C) -1.33 ± 0.1; (37 °C) -0.134 ± 0.1.

Consider UCUGAGCAAUAUUACGGUAU, for which the “self-splicing fitness (ln)” value is, setting by setting: (30 °C) -2.41 ± 0.18; (37 °C) -2.5 ± 0.44.

GCUAAGCAAUAUUACGAUAU: the “self-splicing fitness (ln)” value (30 °C) is -0.896 ± 0.066 and the “self-splicing fitness (ln)” value (37 °C) is -0.164 ± 0.094.

CCUAAGCAAUAUUACGUGUC: the “self-splicing fitness (ln)” value (30 °C) was -3.86 ± 0.27 and the “self-splicing fitness (ln)” value (37 °C) was -1.54 ± 0.12.

On to GUGAAGCAAUAUUACGUAGG, for which the “self-splicing fitness (ln)” value (30 °C) was -2.29 ± 0.14 and the “self-splicing fitness (ln)” value (37 °C) is -0.218 ± 0.15.

On to GGACAGCAAUAUUACGGGUG, for which the “self-splicing fitness (ln)” value is -2.51 ± 0.097 (30 °C) and -1.64 ± 0.1 (37 °C).

For the sequence AUGCAGCAAUAUUACGGUGC, the “self-splicing fitness (ln)” value is, setting by setting: (30 °C) -3.79 ± 0.11; (37 °C) -3.02 ± 0.13.

In the case of CGGCAGCAAUAUUACGGAGG, the “self-splicing fitness (ln)” value reads like this: (30 °C) -1.2 ± 0.086; (37 °C) -0.0971 ± 0.11.

As to CGGCAGCAAUAUUACGCAAU, the “self-splicing fitness (ln)” value was -3.47 ± 0.2 (30 °C) and -1.77 ± 0.19 (37 °C).

As for GCUAAGCAAUAUUACGGCGG, the “self-splicing fitness (ln)” value runs as follows: (30 °C) -3.78 ± 0.12; (37 °C) -2.7 ± 0.15.

With UGGCAGCAAUAUUACGUUAU, the “self-splicing fitness (ln)” value is -2.25 ± 0.11 (30 °C) and -1.91 ± 0.16 (37 °C).

Turning to CCACAGCAAUAUUACGUGUA, the “self-splicing fitness (ln)” value (30 °C) was -3.23 ± 0.096 and the “self-splicing fitness (ln)” value (37 °C) is -1.63 ± 0.069.

As to CGAGAGCAAUAUUACGUGCA, the “self-splicing fitness (ln)” value was -3.22 ± 0.23 (30 °C) and -3.2 ± 0.43 (37 °C).

GGUCAGCAAUAUUACGAGCA: for the setting “30 °C”, the “self-splicing fitness (ln)” value was -0.762 ± 0.32.

With GCAUAGCAAUAUUACGAGGG, the “self-splicing fitness (ln)” value is, setting by setting: (30 °C) -3.43 ± 0.23; (37 °C) -1.69 ± 0.17.

Turning to GUGCAGCAAUAUUACGAGUA, the “self-splicing fitness (ln)” value reads like this: (30 °C) -2.62 ± 0.34; (37 °C) -1.8 ± 0.21.

GACUAGCAAUAUUACGGUUA: the “self-splicing fitness (ln)” value is, setting by setting: (30 °C) -0.116 ± 0.083; (37 °C) 0.109 ± 0.085.

Take AGUGAGCAAUAUUACGUUCG: the “self-splicing fitness (ln)” value runs as follows: (30 °C) -3.26 ± 0.16; (37 °C) -2.22 ± 0.14.

With UUUAAGCAAUAUUACGAGUG, the “self-splicing fitness (ln)” value was -1.38 ± 0.14 (30 °C) and -0.204 ± 0.13 (37 °C).

On to UUCCAGCAAUAUUACGUGUG, for which the “self-splicing fitness (ln)” value by setting is: (30 °C) -0.736 ± 0.04; (37 °C) -0.164 ± 0.055.

For AUUAAGCAAUAUUACGUCUU, the “self-splicing fitness (ln)” value was -0.854 ± 0.091 (30 °C) and -0.387 ± 0.11 (37 °C).

With AUCCAGCAAUAUUACGUACG, the “self-splicing fitness (ln)” value is, setting by setting: (30 °C) -1.7 ± 0.11; (37 °C) -0.813 ± 0.19.

In the case of UGAUAGCAAUAUUACGCUUU, the “self-splicing fitness (ln)” value reads like this: (30 °C) -3.56 ± 0.47; (37 °C) -1.39 ± 0.15.

As for AGAAAGCAAUAUUACGAUCA, the “self-splicing fitness (ln)” value by setting is: (30 °C) 0.101 ± 0.083; (37 °C) 0.0881 ± 0.11.

For the sequence UAGCAGCAAUAUUACGUAGG, the “self-splicing fitness (ln)” value (30 °C) is -1.62 ± 0.082 and the “self-splicing fitness (ln)” value (37 °C) is -1.35 ± 0.1.

Regarding UAGUAGCAAUAUUACGGGUC, the “self-splicing fitness (ln)” value runs as follows: (30 °C) -4.67 ± 0.46; (37 °C) -2.97 ± 0.47.

Turning to GUGGAGCAAUAUUACGACGA, the “self-splicing fitness (ln)” value (37 °C) was -1.12 ± 0.46.

With GAAAAGCAAUAUUACGACAC, the “self-splicing fitness (ln)” value was -0.467 ± 0.14 (30 °C) and -0.346 ± 0.17 (37 °C).

Regarding ACACAGCAAUAUUACGUCCA, the “self-splicing fitness (ln)” value runs as follows: (30 °C) -1.09 ± 0.089; (37 °C) -0.474 ± 0.096.

AUCGAGCAAUAUUACGGAAC: the “self-splicing fitness (ln)” value is, setting by setting: (30 °C) -2.61 ± 0.31; (37 °C) -2.07 ± 0.4.

With GAUGAGCAAUAUUACGUGAG, the “self-splicing fitness (ln)” value reads like this: (30 °C) -2.88 ± 0.23; (37 °C) -2.06 ± 0.28.

Regarding GUCGAGCAAUAUUACGGUGU, the “self-splicing fitness (ln)” value reads like this: (30 °C) -1.98 ± 0.087; (37 °C) -1.14 ± 0.11.

With ACUAAGCAAUAUUACGGUUA, the “self-splicing fitness (ln)” value by setting is: (30 °C) -2.02 ± 0.1; (37 °C) -1.06 ± 0.086.

In the case of GAUUAGCAAUAUUACGGUAU, the “self-splicing fitness (ln)” value is -1.75 ± 0.12 (30 °C) and -1.14 ± 0.14 (37 °C).
